Data published in patent US6414113B1, “Peptides binding to bone marrow stromal cell antigen” (Biomolecular Engineering Research Institute, priority 1998, dated 2002).
Where no end group is shown, it is not given here. The star is where a group is joined. Biotin = O=C1N[C@H]2[C@H](CS[C@H]2CCCCC(=O)*)N1

T1: BST-1 (Homo sapiens, UniProt Q10588)
T1 construct: made in house; host or cells: baculovirus (pVL1393); virus made in Sf9, protein expressed in High five insect cells
T1 sequence (Q10588 33-297): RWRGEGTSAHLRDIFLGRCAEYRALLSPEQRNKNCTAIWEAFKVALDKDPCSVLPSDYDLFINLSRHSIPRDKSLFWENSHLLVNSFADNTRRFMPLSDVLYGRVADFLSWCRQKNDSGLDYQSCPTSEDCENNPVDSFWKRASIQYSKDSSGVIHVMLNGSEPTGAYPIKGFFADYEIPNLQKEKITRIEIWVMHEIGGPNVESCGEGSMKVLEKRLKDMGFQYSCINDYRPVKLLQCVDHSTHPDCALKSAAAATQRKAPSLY

T2: soluble human bone marrow stromal cell antigen-1 (BST-1) (human, UniProt Q10588 33-297)
T2 construct: range 1-297; Expressed with baculovirus in High five insect cells, purified to 95% or more; The construct encodes codons 1-297; also called purified BST-1; soluble BST-1
T2 sequence (looked up): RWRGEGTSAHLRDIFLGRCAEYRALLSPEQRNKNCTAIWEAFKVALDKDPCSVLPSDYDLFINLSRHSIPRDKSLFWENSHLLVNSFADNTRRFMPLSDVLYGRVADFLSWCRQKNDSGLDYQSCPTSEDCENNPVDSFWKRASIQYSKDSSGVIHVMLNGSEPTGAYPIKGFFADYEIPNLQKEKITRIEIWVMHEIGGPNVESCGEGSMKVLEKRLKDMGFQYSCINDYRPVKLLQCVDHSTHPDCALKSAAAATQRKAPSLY


Key:
[1] = biological target: T1, BST-1; assay: Inhibition of ADP-ribosyl cyclase activity of BST-1 (NGD method); assay type: biochemical; details: DTT 10 mM
Description: The fact that the peptide thus obtained inhibits ADP-ribosyl cyclase activity of BST-1 may be identified by comparing the ADP-ribosyl cyclase activity when measured in the absence of the peptide with the activity in the presence of the peptide. As previously mentioned, NAD is converted to cADP-ribose by ADP-ribosyl cyclase activity of BST-1, and therefore, the activity may be measured by allowing to react NAD with BST-1 and then quantitatively determining NAD and cADP-ribose after separation of them by anion-exchange chromatography (FEBS letters, 356, 244, 1994). Alternatively, nicotinamide guanine dinucleotide (NGD) may be used as a substrate instead of NAD, which is converted to cyclic guanosine-5′-diphosphate-ribose cGDP-ribose that can be fluorimetrically measured with an excitation wavelength of 300 nm and an emission wavelength of 410 nm, whereby the velocity of the formation of cGDP-ribose reflects ADP-ribosyl cyclase activity (J. Biol. Chem., […], 30260, 1994).
The abscissa is time course and the ordinate is fluorescence intensity. Purified BST-1 (4 μg/ml) was mixed with NGD (300 μM), and the mixture was allowed to react at 25° C. for 300 seconds, and then the synthetic peptide SNP-1 was added thereto at the concentration of 20 μM.
Inhibition of ADP-ribosyl cyclase activity of BST-1 by synthetic peptides was tested by means of the NGD method previously mentioned. […]

[2] = biological target: T2, soluble human bone marrow stromal cell …; assay: Biacore SPR, BST-1 amine-coupled on CM5, equilibrium values at 400-2000 nM peptide, Scatchard plot
Description: BST-1 was immobilized at 2800 resonance unit (RU) on the sensor chip CM5 of a bio-sensor for analyzing protein interactions, BIACORE (Biacore K.K.), by means of an amine coupling method. The synthetic peptides were passed through the sensor chip at the flow rate of 40 µl/min at the concentration of from 400 nM to 2000 nM. Equilibrium binding value was obtained for each concentration. Based on the equilibrium binding values, dissociation constants were calculated by means of Scatchard plot method (Hulme E. C.; Receptor-binding studies, a brief outline, in Receptor Biochemistry: A Practical Approach, 303–315, IRL press, 1990).

[3] = biological target: T3, bovine serum albumin (bovine, UniProt P02769 25-607); assay: phage ELISA, well coated with BSA alone
T3 construct: also called BSA
T3 sequence (P02769 25-607 limits assumed): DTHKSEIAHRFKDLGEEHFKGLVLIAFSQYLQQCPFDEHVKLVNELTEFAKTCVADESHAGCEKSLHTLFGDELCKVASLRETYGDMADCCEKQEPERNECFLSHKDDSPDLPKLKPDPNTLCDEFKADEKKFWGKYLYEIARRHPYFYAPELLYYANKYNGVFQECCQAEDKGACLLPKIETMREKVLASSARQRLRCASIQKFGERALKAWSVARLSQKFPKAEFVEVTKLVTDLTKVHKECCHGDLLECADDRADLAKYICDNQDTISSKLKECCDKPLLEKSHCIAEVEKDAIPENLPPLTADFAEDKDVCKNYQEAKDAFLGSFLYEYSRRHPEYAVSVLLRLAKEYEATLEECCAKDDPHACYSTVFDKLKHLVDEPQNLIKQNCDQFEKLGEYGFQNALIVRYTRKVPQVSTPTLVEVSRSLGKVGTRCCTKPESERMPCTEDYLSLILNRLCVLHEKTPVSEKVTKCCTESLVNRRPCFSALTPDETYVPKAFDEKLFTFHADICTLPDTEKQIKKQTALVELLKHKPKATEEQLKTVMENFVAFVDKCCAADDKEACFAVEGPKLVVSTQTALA

| Molecule | Kd [2] [nM] | binding result [3] | further results |
| --- | --- | --- | --- |
| O[C@@H](CS)[C@@H](O)CS [DTT] | – | – | ADP-ribosyl cyclase activity of BST-1 after addition of reducing agent [1]: complete disappearance |
| {Sulfo‑NHS‑LC‑Biotin}-HSQISGKYQRYLKDA [bSNP-1 (SNP-1 biotinylated at the N-terminal)] | 530 | – | – |
| HSQISGKYQRYLKDA (not shown: phage coat protein of the Fuse 5 vector to which the peptide is fused; not specified) [phage SN-1 (phage expressing the peptide defined by SEQ ID NO: 1)] | – | no binding | – |
| DDVVYTNIHKWGRRE (not shown: phage coat protein of the Fuse 5 vector to which the peptide is fused; not specified) [phage SN-16 (phage expressing the peptide defined by SEQ ID NO: 2)] | – | no binding | – |
| HSQISGKYQRYLKDAK(Biotin) [SNPb-1 (SNP-1 with an additional C-terminal Lys carrying biotin)] | 810 | – | – |
| HSQISGKYQRYLKDA (15-residue synthetic peptide, purity 95% or more; also called prototype SNP-1; original SNP-1) [synthetic peptide SNP-1] | 510 | – | – |
